Assay results: article PMC10706272, “Improving the Thermostability of Thermomyces lanuginosus Lipase by Restricting the Flexibility of N-Terminus and C-Terminus Simultaneously via the 25-Loop Substitutions” (International Journal of Molecular Sciences, 2023)

Substrate: CCCCCCCCCCCCCCCC(=O)Oc1ccc([N+](=O)[O-])cc1
Test: initial-rate hydrolysis of pNPP, p-nitrophenol release, Michaelis-Menten fit
Type: biochemical, Thermomyces lanuginosus
Details: 37 °C, pH 9.0, Tris-HCl 100 mM, apparent Km, pNPP 0.25-10 mM
Text: initial-rate hydrolysis of pNPP, p-nitrophenol release, Michaelis-Menten fit on TLL (Thermomyces lanuginosus lipase)

B1: TLL (Thermomyces lanuginosus lipase) (Thermomyces lanuginosus) (protein)
chain: EVSQDLFNQFNLFAQYSAAAYCGKNNDAPAGTNITCTGNACPEVEKADATFLYSFEDSGVGDVTGFLALDNTNKLIVLSFRGSRSIENWIGNLNFDLKEINDICSGCRGHDGFTSSWRSVADTLRQKVEDAVREHPDYRVVFTGHSLGGALATVAGADLRGNGYDIDVFSYGAPRVGNRAFAEFLTVQTGGTLYRITHTNDIVPRLPPREFGYSHSSPEYWIKSGTLVPVTRNDIVKIEGIDATGGNNQPNIPDIPAHLWYFGLIGTCL
Km: 220 ± 50 µM | Vmax: 402 µmol/min/mg | kcat: 594 ± 4 s⁻¹ | kcat/Km: 2.72e+06 ± 54000 M⁻¹ s⁻¹
